These results are taken from IntAct's records for PubMed 25910212.

B1: Meiotic recombination protein DMC1/LIM15 homolog (Homo sapiens), Q14565 (parent)
chain: MKEDQVVAEEPGFQDEEESLFQDIDLLQKHGINVADIKKLKSVGICTIKGIQMTTRRALCNVKGLSEAKVDKIKEAANKLIEPGFLTAFEYSEKRKMVFHITTGSQEFDKLLGGGIESMAITEAFGEFRTGKTQLSHTLCVTAQLPGAGGYPGGKIIFIDTENTFRPDRLRDIADRFNVDHDAVLDNVLYARAYTSEHQMELLDYVAAKFHEEAGIFKLLIIDSIMALFRVDFSGRGELAERQQKLAQMLSRLQKISEEYNVAVFVTNQMTADPGATMTFQADPKKPIGGHILAHASTTRISLRKGRGELRIAKIYDSPEMPENEATFAITAGGIGDAKE
partner: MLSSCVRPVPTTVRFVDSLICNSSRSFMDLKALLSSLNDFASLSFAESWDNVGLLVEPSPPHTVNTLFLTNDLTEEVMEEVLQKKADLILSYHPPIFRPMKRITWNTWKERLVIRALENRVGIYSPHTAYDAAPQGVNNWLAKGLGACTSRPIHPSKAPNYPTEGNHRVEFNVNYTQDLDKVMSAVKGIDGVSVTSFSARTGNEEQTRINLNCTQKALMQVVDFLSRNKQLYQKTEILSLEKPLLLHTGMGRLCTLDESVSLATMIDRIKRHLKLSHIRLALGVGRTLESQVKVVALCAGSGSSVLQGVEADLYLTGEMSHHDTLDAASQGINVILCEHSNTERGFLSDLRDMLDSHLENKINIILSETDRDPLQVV
B2: Acetylcholine receptor subunit gamma (Homo sapiens), P07510-2 (parent)
chain: MHGGQGPLLLLLLLAVCLGAQGRNQEERLLADLMQNYDPNLRPAERDSDVVNVSLKLTLTNLISLNEREEALTTNVWIEMQWCDYRLRWDPRDYEGLWVLRVPSTMVWRPDIVLENKSQTYSTNEIDLQLSQEDGQTIEWIFIDPEAFTENGEWAIQHRPAKMLLDPAAPAQEAGHQKVVFYLLIQRKPLFYVINIIAPCVLISSVAILIHFLPAKAGGQKCTVAINVLLAQTVFLFLVAKKVPETSQAVPLISKYLTFLLVVTILIVVNAVVVLNVSLRSPHTHSMARGVRKVFLRLLPQLLRMHVRPLAPAAVQDTQSRLQNGSSGWSITTGEEVALCLPRSELLFQQWQRQGLVAAALEKLEKGPELGLSQFCGSLKQAAPAIQACVEACNLIACARHQQSHFDNGNEEWFLVGRVLDRVCFLAMLSLFICGTAGIFLMAHYNRVPALPFPGDPRPYLPSPD
B3: Myelin proteolipid protein (Homo sapiens), P60201-2 (parent)
chain: MGLLECCARCLVGAPFASLVATGLCFFGVALFCGCGHEALTGTEKLIETYFSKNYQDYEYLINVIHAFQYVIYGTASFFFLYGALLLAEGFYTTGAVRQIFGDYKTTICGKGLSATFVGITYALTVVWLLVFACSAVPVYIYFNTWTTCQSIAFPSKTSASIGSLCADARMYGVLPWNAFPGKVCGSNLLSICKTAEFQMTFHLFIAAFVGAAATLVSLLTFMIAATYNFAVLKLMGRGTKF
partner: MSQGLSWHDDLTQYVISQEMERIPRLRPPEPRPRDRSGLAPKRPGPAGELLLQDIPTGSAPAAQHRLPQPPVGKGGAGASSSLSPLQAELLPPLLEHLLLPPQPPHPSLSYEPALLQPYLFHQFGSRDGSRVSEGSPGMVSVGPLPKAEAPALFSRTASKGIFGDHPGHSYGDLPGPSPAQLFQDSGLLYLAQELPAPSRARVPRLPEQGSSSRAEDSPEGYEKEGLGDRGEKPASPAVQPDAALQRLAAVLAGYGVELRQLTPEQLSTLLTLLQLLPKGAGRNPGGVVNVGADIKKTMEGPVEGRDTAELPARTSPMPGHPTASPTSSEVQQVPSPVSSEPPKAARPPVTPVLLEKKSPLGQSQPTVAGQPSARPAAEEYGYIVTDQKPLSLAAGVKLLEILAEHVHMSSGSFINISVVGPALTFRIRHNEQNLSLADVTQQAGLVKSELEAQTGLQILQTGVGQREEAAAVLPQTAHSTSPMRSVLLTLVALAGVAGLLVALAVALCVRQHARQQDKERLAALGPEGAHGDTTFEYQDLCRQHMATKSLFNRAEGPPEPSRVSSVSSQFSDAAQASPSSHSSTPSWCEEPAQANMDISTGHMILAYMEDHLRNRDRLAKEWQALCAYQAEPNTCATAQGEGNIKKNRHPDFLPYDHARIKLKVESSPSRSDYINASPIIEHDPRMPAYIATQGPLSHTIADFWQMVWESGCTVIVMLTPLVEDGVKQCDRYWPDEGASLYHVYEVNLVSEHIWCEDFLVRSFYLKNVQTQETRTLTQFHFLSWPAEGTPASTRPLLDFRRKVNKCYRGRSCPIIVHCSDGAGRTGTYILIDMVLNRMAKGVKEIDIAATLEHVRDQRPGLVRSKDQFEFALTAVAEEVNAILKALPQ
B4: Fibulin-5 (Homo sapiens), Q9UBX5 (parent)
chain: MPGIKRILTVTILALCLPSPGNAQAQCTNGFDLDRQSGQCLDIDECRTIPEACRGDMMCVNQNGGYLCIPRTNPVYRGPYSNPYSTPYSGPYPAAAPPLSAPNYPTISRPLICRFGYQMDESNQCVDVDECATDSHQCNPTQICINTEGGYTCSCTDGYWLLEGQCLDIDECRYGYCQQLCANVPGSYSCTCNPGFTLNEDGRSCQDVNECATENPCVQTCVNTYGSFICRCDPGYELEEDGVHCSDMDECSFSEFLCQHECVNQPGTYFCSCPPGYILLDDNRSCQDINECEHRNHTCNLQQTCYNLQGGFKCIDPIRCEEPYLRISDNRCMCPAENPGCRDQPFTILYRDMDVVSGRSVPADIFQMQATTRYPGAYYIFQIKSGNEGREFYMRQTGPISATLVMTRPIKGPREIQLDLEMITVNTVINFRGSSVIRLRIYVSQYPF
partner: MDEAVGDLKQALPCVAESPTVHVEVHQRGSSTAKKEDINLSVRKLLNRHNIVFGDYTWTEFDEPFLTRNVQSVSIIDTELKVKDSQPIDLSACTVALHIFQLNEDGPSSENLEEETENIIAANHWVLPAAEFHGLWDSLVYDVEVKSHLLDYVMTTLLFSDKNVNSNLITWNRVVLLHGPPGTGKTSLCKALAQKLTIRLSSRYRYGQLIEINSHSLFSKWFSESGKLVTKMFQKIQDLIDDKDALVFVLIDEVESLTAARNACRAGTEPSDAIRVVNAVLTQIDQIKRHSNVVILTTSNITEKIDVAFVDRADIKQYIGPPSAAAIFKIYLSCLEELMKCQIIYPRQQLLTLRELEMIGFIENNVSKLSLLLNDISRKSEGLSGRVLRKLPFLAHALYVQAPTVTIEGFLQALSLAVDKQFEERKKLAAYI
B5: Cyclin-dependent kinase 4 inhibitor C (Homo sapiens), P42773 (parent)
chain: MAEPWGNELASAAARGDLEQLTSLLQNNVNVNAQNGFGRTALQVMKLGNPEIARRLLLRGANPDLKDRTGFAVIHDAARAGFLDTLQTLLEFQADVNIEDNEGNLPLHLAAKEGHLRVVEFLVKHTASNVGHRNHKGDTACDLARLYGRNEVVSLMQANGAGGATNLQ
partner: B1 partner
B6: B-cell antigen receptor complex-associated protein beta chain (Homo sapiens), P40259 (parent)
chain: MARLALSPVPSHWMVALLLLLSAEPVPAARSEDRYRNPKGSACSRIWQSPRFIARKRGFTVKMHCYMNSASGNVSWLWKQEMDENPQQLKLEKGRMEESQNESLATLTIQGIRFEDNGIYFCQQKCNNTSEVYQGCGTELRVMGFSTLAQLKQRNTLKDGIIMIQTLLIILFIIVPIFLLLDKDDSKAGMEEDHTYEGLDIDQTATYEDIVTLRTGEVKWSVGEHPGQE
B7: E3 ubiquitin-protein ligase Midline-1 (Homo sapiens), O15344 (parent)
chain: METLESELTCPICLELFEDPLLLPCAHSLCFNCAHRILVSHCATNESVESITAFQCPTCRHVITLSQRGLDGLKRNVTLQNIIDRFQKASVSGPNSPSETRRERAFDANTMTSAEKVLCQFCDQDPAQDAVKTCVTCEVSYCDECLKATHPNKKPFTGHRLIEPIPDSHIRGLMCLEHEDEKVNMYCVTDDQLICALCKLVGRHRDHQVAALSERYDKLKQNLESNLTNLIKRNTELETLLAKLIQTCQHVEVNASRQEAKLTEECDLLIEIIQQRRQIIGTKIKEGKVMRLRKLAQQIANCKQCIERSASLISQAEHSLKENDHARFLQTAKNITERVSMATASSQVLIPEINLNDTFDTFALDFSREKKLLECLDYLTAPNPPTIREELCTASYDTITVHWTSDDEFSVVSYELQYTIFTGQANVVSLCNSADSWMIVPNIKQNHYTVHGLQSGTKYIFMVKAINQAGSRSSEPGKLKTNSQPFKLDPKSAHRKLKVSHDNLTVERDESSSKKSHTPERFTSQGSYGVAGNVFIDSGRHYWEVVISGSTWYAIGLAYKSAPKHEWIGKNSASWALCRCNNNWVVRHNSKEIPIEPAPHLRRVGILLDYDNGSIAFYDALNSIHLYTFDVAFAQPVCPTFTVWNKCLTIITGLPIPDHLDCTEQLP
partner: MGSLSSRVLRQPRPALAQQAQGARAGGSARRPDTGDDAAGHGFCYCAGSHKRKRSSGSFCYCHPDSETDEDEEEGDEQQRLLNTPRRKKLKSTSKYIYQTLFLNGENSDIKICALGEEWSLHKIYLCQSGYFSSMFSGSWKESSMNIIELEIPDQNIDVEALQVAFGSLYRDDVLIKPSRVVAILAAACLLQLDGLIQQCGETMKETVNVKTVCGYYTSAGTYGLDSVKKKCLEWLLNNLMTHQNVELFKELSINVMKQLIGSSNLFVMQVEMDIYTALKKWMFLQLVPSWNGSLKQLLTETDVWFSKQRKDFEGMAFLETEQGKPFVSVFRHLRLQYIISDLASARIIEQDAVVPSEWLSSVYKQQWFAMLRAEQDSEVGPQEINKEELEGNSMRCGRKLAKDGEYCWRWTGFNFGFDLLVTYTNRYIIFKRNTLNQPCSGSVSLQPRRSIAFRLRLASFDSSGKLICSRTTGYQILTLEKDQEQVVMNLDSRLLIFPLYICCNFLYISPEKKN
B8: Carbonic anhydrase-related protein (Homo sapiens), P35219 (parent)
chain: MADLSFIEDTVAFPEKEEDEEEEEEGVEWGYEEGVEWGLVFPDANGEYQSPINLNSREARYDPSLLDVRLSPNYVVCRDCEVTNDGHTIQVILKSKSVLSGGPLPQGHEFELYEVRFHWGRENQRGSEHTVNFKAFPMELHLIHWNSTLFGSIDEAVGKPHGIAIIALFVQIGKEHVGLKAVTEILQDIQYKGKSKTIPCFNPNTLLPDPLLRDYWVYEGSLTIPPCSEGVTWILFRYPLTISQLQIEEFRRLRTHVKGAELVEGCDGILGDNFRPTQPLSDRVIRAAFQ
partner: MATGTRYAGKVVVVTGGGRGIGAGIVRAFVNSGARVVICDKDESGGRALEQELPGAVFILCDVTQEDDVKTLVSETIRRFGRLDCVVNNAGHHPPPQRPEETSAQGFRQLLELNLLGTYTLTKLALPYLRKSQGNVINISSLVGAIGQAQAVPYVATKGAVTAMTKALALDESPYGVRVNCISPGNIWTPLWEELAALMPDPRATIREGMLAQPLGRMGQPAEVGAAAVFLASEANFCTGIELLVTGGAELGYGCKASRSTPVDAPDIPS

Variants of B1 are the subject of the first assay. Conditions: with nif3l_human NIF3L1, Q9GZT8.
Consider M200V, for which the “effect of a mutation on the interaction” value was “disrupting interaction strength”.

The variants in a further assay derive from B2. Conditions: with mdfi_human MDFI.
Take V107G: the “effect of a mutation on the interaction” value is given as “disrupting interaction strength”.

On to R86C, for which the “effect of a mutation on the interaction” value is “disrupting interaction strength”.

A further assay covers variants of B2. Conditions: with nt2na_human NOTCH2NLA.
For the variant V107G, the “effect of a mutation on the interaction” value is recorded as “disrupting interaction strength”.

For R86C, the “effect of a mutation on the interaction” value was “disrupting interaction strength”.

In the next assay the parent is B2. The following applies: with k1h1_human KRT31, Q15323.
Chain of k1h1_human KRT31, Q15323 (Q15323 whole entry): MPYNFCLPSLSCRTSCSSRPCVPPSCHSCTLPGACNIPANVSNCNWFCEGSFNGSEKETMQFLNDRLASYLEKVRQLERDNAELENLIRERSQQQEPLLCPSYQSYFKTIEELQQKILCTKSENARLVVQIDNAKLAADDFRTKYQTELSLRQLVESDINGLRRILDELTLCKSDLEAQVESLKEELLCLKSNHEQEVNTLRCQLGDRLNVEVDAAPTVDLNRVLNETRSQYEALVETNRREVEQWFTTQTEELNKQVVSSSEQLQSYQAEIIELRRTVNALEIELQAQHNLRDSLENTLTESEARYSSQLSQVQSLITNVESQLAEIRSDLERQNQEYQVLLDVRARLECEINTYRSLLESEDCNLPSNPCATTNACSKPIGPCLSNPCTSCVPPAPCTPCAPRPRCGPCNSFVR
With V107G, the “effect of a mutation on the interaction” value was “disrupting interaction strength”.

Take R86C: the “effect of a mutation on the interaction” value was “disrupting interaction strength”.

In the next assay the parent is B2. The following applies: with meox2_human MEOX2, P50222.
Chain of meox2_human MEOX2, P50222 (P50222 whole entry): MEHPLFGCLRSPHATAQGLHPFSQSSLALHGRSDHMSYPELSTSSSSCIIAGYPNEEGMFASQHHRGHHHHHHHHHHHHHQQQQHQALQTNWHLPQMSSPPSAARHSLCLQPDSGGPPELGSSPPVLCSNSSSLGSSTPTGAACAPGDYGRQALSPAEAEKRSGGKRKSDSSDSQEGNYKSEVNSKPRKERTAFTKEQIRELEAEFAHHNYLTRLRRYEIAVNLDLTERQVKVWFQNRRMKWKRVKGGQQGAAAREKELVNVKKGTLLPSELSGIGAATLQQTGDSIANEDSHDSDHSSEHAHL
With V107G, the “effect of a mutation on the interaction” value is on record as “disrupting interaction strength”.

R86C: the “effect of a mutation on the interaction” value was “disrupting interaction strength”.

Variants of B3 are the subject of the next assay. The following applies: with PTPRN.
On to P15L, for which the “effect of a mutation on the interaction” value was “disrupting interaction strength”.

On to L87P, for which the “effect of a mutation on the interaction” value is reported as “disrupting interaction strength”.

In the case of W128L, the “effect of a mutation on the interaction” value is on record as “disrupting interaction strength”.

With A213E, the “effect of a mutation on the interaction” value is given as “disrupting interaction strength”.

The next assay covers variants of B4. The following applies: with pch2_human TRIP13, Q15645.
Turning to V60L, the “effect of a mutation on the interaction” value is listed as “disrupting interaction strength”.

The variants in a further assay derive from B5. The following applies: with nif3l_human NIF3L1, Q9GZT8.
As to V31L, the “effect of a mutation on the interaction” value is recorded as “disrupting interaction strength”.

Variants of B6 are the subject of a further assay. Conditions: with sgta_human SGTA.
As for G137S, the “effect of a mutation on the interaction” value is “disrupting interaction strength”.

In a further assay the parent is B7. Conditions: with gmcl1_human GMCL1, Q96IK5.
With P151L, the “effect of a mutation on the interaction” value is given as “with no effect”.

On to K370E, for which the “effect of a mutation on the interaction” value is given as “with no effect”.

With C266R, the “effect of a mutation on the interaction” value is “with no effect”.

As to L626P, the “effect of a mutation on the interaction” value is on record as “with no effect”.

In the next assay the parent is B8. Conditions: with dhb14_human HSD17B14, Q9BPX1.
With S100P, the “effect of a mutation on the interaction” value was “disrupting interaction strength”.
